Laboratory results as given in article PMC11262565.

Molecular target: biotinylated human IgG1 Fc protein (IG1-H8213, ACROBiosystems) (human)
Assay: BLI

Row | Substance | Kd [nM]
1 | Fc-ARM A-Z (HER2-specific affibody Z_(HER2:342) fused to a single Z domain) (designed binder) | 7.8
2 | Fc-ARM A-ZZ (HER2-specific affibody Z_(HER2:342) fused to double Z domains) (designed binder) | 0.28
